Experimental data published in patent publication US20260216326A1 (PROMETHEUS BIOSCIENCES, published 2026).
Where a chain is given by its changes, count along the chain named.

T1: human TL1A (Fitzgerald #30R-AT070) (human, UniProt O95150 72-251, limits assumed)
T1 construct: Coated on the ELISA plate at 1 ug/mL; also called TNFSF15
T1 sequence (looked up): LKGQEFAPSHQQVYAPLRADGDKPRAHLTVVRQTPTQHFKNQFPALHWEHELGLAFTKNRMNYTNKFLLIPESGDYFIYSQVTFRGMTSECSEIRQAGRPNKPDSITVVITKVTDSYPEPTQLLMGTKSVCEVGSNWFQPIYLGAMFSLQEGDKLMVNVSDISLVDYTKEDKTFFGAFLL

B1: A148 (antibody, human IgG1, V domains shown)
VH: QVQLVQSGAEVKKPGASVKVSCKASGFDIQDTYMHWVRQAPGQGLEWMGRIEPASGHIKYDPKFQVRVTMTRDTSTSTVYMELSSLRSEDTAVYYCARSGGLPDWWGQGTTVTVSS
VL: EIVLTQSPGTLSLSPGERATLSCRASSSVSYMYWYQQKPGQAPRPLIYATSNLASGIPDRFSGSGSGTDFTLTISRLEPEDFAVYYCQQWEGNPRTFGGGTKLEIK
notes: human IgG1/kappa (pFuse vectors), culture supernatant
B2: A29 (antibody, human IgG1, V domains shown)
VH: QVQLVQSGAEVKKPGASVKVSCKASGFDIQDTYMHWVKQRPGQGLEWIGRIDPASGHTKYDPKFQVRATITTDTSTSTAYLELSSLRSEDTAVYYCARSGGLPDVWGQGTTVTVSS
VL: B1 VL with L46W
notes: as for B1
B3: A31 (antibody, human IgG1, V domains shown)
VH: B1 VH with V66G
VL: B1 VL with L46W
notes: as for B1
B4: A32 (antibody, V domains shown)
VH: B1 VH with Q1D, V66G
VL: B1 VL with L46W
B5: A33 (antibody, V domains shown)
VH: B1 VH with Q1D, V66G
VL: B1 VL with P45L
B6: A57 (antibody, human IgG1, V domains shown)
VH: B1 VH with A40R, V66G
VL: B1 VL with P45L
notes: as for B1
B7: A58 (antibody, human IgG1, V domains shown)
VH: B1 VH with R38K, V66G
VL: B1 VL with P45L
notes: as for B1
B8: A59 (antibody, human IgG1, V domains shown)
VH: B1 VH with R38K, A40R, V66G
VL: B1 VL with P45L
notes: as for B1
B9: A60 (antibody, human IgG1, V domains shown)
VH: B1 VH with E52D, V66G
VL: B1 VL with P45L
notes: as for B1
B10: A61 (antibody, human IgG1, V domains shown)
VH: B1 VH with M48I, V66G
VL: B1 VL with P45L
notes: as for B1
B11: A62 (antibody, human IgG1, V domains shown)
VH: B1 VH with M48I, E52D, V66G
VL: B1 VL with P45L
notes: as for B1
B12: A63 (antibody, human IgG1, V domains shown)
VH: B1 VH with I58V, V66G
VL: B1 VL with P45L
notes: as for B1
B13: A64 (antibody, human IgG1, V domains shown)
VH: B1 VH
VL: B1 VL with P45L
notes: as for B1
B14: A65 (antibody, human IgG1, V domains shown)
VH: B1 VH with V66G, V68A
VL: B1 VL with P45L
notes: as for B1
B15: A66 (antibody, human IgG1, V domains shown)
VH: B1 VH with V66G, M70I
VL: B1 VL with P45L
notes: as for B1
B16: A67 (antibody, human IgG1, V domains shown)
VH: B1 VH with V68A
VL: B1 VL with P45L
notes: as for B1
B17: A68 (antibody, human IgG1, V domains shown)
VH: B1 VH with M70I
VL: B1 VL with P45L
notes: as for B1
B18: A69 (antibody, human IgG1, V domains shown)
VH: B1 VH with Q1E, V66G
VL: B1 VL with P45L
notes: as for B1
B19: A70 (antibody, human IgG1, V domains shown)
VH: B1 VH with V66G, R72T
VL: B1 VL with P45L
notes: as for B1
B20: A71 (antibody, human IgG1, V domains shown)
VH: B1 VH with V66G, M70I, R72T
VL: B1 VL with P45L
notes: as for B1
B21: A72 (antibody, human IgG1, V domains shown)
VH: B1 VH with V66G, V68A, M70I, R72T
VL: B1 VL with P45L
notes: as for B1
B22: A73 (antibody, human IgG1, V domains shown)
VH: B1 VH with V66G, R72T
VL: B1 VL with L46W
notes: as for B1
B23: A74 (antibody, human IgG1, V domains shown)
VH: B1 VH with V66G, M70I, R72T
VL: B1 VL with L46W
notes: as for B1
B24: A75 (antibody, human IgG1, V domains shown)
VH: B1 VH with V66G, V68A, M70I, R72T
VL: B1 VL with L46W
notes: as for B1
B25: A85 (antibody, human IgG1, V domains shown)
VH: B1 VH with V66G
VL: B1 VL with P45L, I57V
notes: as for B1
B26: A86 (antibody, human IgG1, V domains shown)
VH: B1 VH with V66G
VL: B1 VL with P45L, F70Y
notes: as for B1
B27: A87 (antibody, human IgG1, V domains shown)
VH: B1 VH with V66G
VL: B1 VL with P45L, L77V
notes: as for B1
B28: A88 (antibody, human IgG1, V domains shown)
VH: B1 VH with V66G
VL: B1 VL with P45L, F70Y, L77V
notes: as for B1
B29: A89 (antibody, human IgG1, V domains shown)
VH: B1 VH with V66G
VL: B1 VL with L13A, P45L
notes: as for B1
B30: A90 (antibody, human IgG1, V domains shown)
VH: B1 VH with V66G
VL: B1 VL with L11M, P45L
notes: as for B1
B31: A91 (antibody, human IgG1, V domains shown)
VH: B1 VH with V66G, V79A
VL: B1 VL with P45L
notes: as for B1
B32: A92 (antibody, human IgG1, V domains shown)
VH: B1 VH with V66G, M81L
VL: B1 VL with P45L
notes: as for B1
B33: A93 (antibody, human IgG1, V domains shown)
VH: B1 VH with V66G, V79A, M81L
VL: B1 VL with P45L
notes: as for B1

Biological target: T1, human TL1A (Fitzgerald #30R-AT070)
Assay: ELISA titration, coated human TL1A, culture supernatant

Row | Binder | Kd [pM]
1 | B1 | 46
2 | B2 | 65
3 | B3 | 92
4 | B4 | 111
5 | B5 | 81
6 | B6 | 191
7 | B7 | 112
8 | B8 | 136
9 | B9 | 168
10 | B10 | 127
11 | B11 | 150
12 | B12 | 132
13 | B13 | 90
14 | B14 | 97
15 | B15 | 150
16 | B16 | 89
17 | B17 | 74

Row | Binder | Kd [pM]
18 | B18 | 136
19 | B19 | 149
20 | B20 | 150
21 | B21 | 159
22 | B22 | 128
23 | B23 | 141
24 | B24 | 259
25 | B25 | 130
26 | B26 | 129
27 | B27 | 121
28 | B28 | 81
29 | B29 | 117
30 | B30 | 107
31 | B31 | 132
32 | B32 | 121
33 | B33 | 117
